{"source": "patent US10064929B2", "about": "“Peptides and combination of peptides for use in immunotherapy against breast cancer and other cancers” (immatics biotechnologies GmbH, priority 2015, dated 2018)", "note": "Square brackets hold non-standard residues; d marks the D form. Ends that are not written are not given here. pT = C[C@@H](OP(=O)(O)O)[C@H](N)C(=O)O"}
{"biological_target": "HLA-A*02:01 (Homo sapiens, UniProt P04439, D140Y/D185E/D98H/E176V/E277Q/G131W/G231S/I119V/I121R/I166T/I218V/L300P/L318F/N151K/N90K/P208A/P217A/Q86G/Q94H/R138H/R169H/T345S)", "test": "MHC binding assay: UV-ligand exchange with β2m ELISA", "settings": "binding to HLA-A*02:01", "text": "Candidate peptides for T cell based therapies according to the present invention were further tested for their MHC binding capacity (affinity). The individual peptide-MHC complexes were produced by UV-ligand exchange, where a UV-sensitive peptide is cleaved upon UV-irradiation, and exchanged with the peptide of interest as analyzed. Only peptide candidates that can effectively bind and stabilize the peptide-receptive MHC molecules prevent dissociation of the MHC complexes. To determine the yield of the exchange reaction, an ELISA was performed based on the detection of the light chain (β2m) of stabilized MHC complexes. The assay was performed as generally described in Rodenko et al. (Rodenko et al., 2006).\n96 well MAXISorp plates (NUNC) were coated over night with 2 ug/ml streptavidin in PBS at room temperature, washed 4× and blocked for 1 h at 37° C. in 2% BSA containing blocking buffer. Refolded HLA-A*02:01/MLA-001 monomers served as standards, covering the range of 15-500 ng/ml. Peptide-MHC monomers of the UV-exchange reaction were diluted 100-fold in blocking buffer. Samples were incubated for 1 h at 37° C., washed four times, incubated with 2 ug/ml HRP conjugated anti-β2m for 1 h at 37° C., washed again and detected with TMB solution that is stopped with […]. Absorption was measured at 450 nm. Candidate peptides that show a high exchange yield (preferably higher than 50%, most preferred higher than 75%) are generally preferred for a generation and production of antibodies or fragments thereof, and/or T cell receptors or fragments thereof, as they show sufficient avidity to the MHC molecules and prevent dissociation of the MHC complexes."}
{"sequence": "FLVEHVLTL (listed as Homo sapiens) [SEQ ID NO: 42]", "Peptide Exchange (MHC class I binding score, peptide exchange yield)": "“++++” (≥75% = ++++)"}
{"sequence": "GLLPTSVSPRV (listed as Homo sapiens) [SEQ ID NO: 11]", "Peptide Exchange (MHC class I binding score, peptide exchange yield)": "“++” (≥20% = ++)"}
{"sequence": "SLVEGEAVHLA (listed as Homo sapiens) [SEQ ID NO: 4]", "Peptide Exchange (MHC class I binding score, peptide exchange yield)": "“++” (≥20% = ++)"}
{"sequence": "KAFPFYNTV (listed as Homo sapiens) [SEQ ID NO: 12]", "Peptide Exchange (MHC class I binding score, peptide exchange yield)": "“++” (≥20% = ++)"}
{"sequence": "KMPEHISTV (listed as Homo sapiens) [SEQ ID NO: 1]", "Peptide Exchange (MHC class I binding score, peptide exchange yield)": "“+++” (≥50 = +++)"}
{"sequence": "FMSKLVPAI (listed as Homo sapiens) [SEQ ID NO: 9]", "Peptide Exchange (MHC class I binding score, peptide exchange yield)": "“+++” (≥50 = +++)"}
{"sequence": "TLLGLAVNV (listed as Homo sapiens) [SEQ ID NO: 36]", "Peptide Exchange (MHC class I binding score, peptide exchange yield)": "“++++” (≥75% = ++++)"}
{"sequence": "GLVQSLTSI (listed as Homo sapiens) [SEQ ID NO: 8]", "Peptide Exchange (MHC class I binding score, peptide exchange yield)": "“++++” (≥75% = ++++)"}
{"sequence": "SLLTEPALV (listed as Homo sapiens) [SEQ ID NO: 21]", "Peptide Exchange (MHC class I binding score, peptide exchange yield)": "“+++” (≥50 = +++)"}
{"sequence": "KLLDMELEM (listed as Homo sapiens) [SEQ ID NO: 39]", "Peptide Exchange (MHC class I binding score, peptide exchange yield)": "“++++” (≥75% = ++++)"}
{"sequence": "ALAGSSPQV (listed as Homo sapiens) [SEQ ID NO: 2]", "Peptide Exchange (MHC class I binding score, peptide exchange yield)": "“+++” (≥50 = +++)"}
{"sequence": "SLAEPRVSV (listed as Homo sapiens) [SEQ ID NO: 27]", "Peptide Exchange (MHC class I binding score, peptide exchange yield)": "“+++” (≥50 = +++)"}
{"sequence": "LLMUVAGLKL (LLM[pT]VAGLKL; listed as Homo sapiens) [SEQ ID NO: 38, U = phospho-threonine]", "Peptide Exchange (MHC class I binding score, peptide exchange yield)": "“++++” (≥75% = ++++)"}
{"sequence": "ALEAUQLYL (ALEA[pT]QLYL; listed as Homo sapiens) [SEQ ID NO: 29, U = phospho-threonine]", "Peptide Exchange (MHC class I binding score, peptide exchange yield)": "“+++” (≥50 = +++)"}
{"sequence": "SLAWDVPAA (listed as Homo sapiens) [SEQ ID NO: 26]", "Peptide Exchange (MHC class I binding score, peptide exchange yield)": "“+++” (≥50 = +++)"}
{"sequence": "SMMGLLTNL (listed as Homo sapiens) [SEQ ID NO: 16]", "Peptide Exchange (MHC class I binding score, peptide exchange yield)": "“++++” (≥75% = ++++)"}
{"sequence": "TIASSIEKA (listed as Homo sapiens) [SEQ ID NO: 17]", "Peptide Exchange (MHC class I binding score, peptide exchange yield)": "“++” (≥20% = ++)"}
{"sequence": "GLSYIYNTV (listed as Homo sapiens) [SEQ ID NO: 31]", "Peptide Exchange (MHC class I binding score, peptide exchange yield)": "“++” (≥20% = ++)"}
{"sequence": "KQLELELEV (listed as Homo sapiens) [SEQ ID NO: 14]", "Peptide Exchange (MHC class I binding score, peptide exchange yield)": "“+++” (≥50 = +++)"}
{"sequence": "YIDGLESRV (listed as Homo sapiens) [SEQ ID NO: 22]", "Peptide Exchange (MHC class I binding score, peptide exchange yield)": "“+++” (≥50 = +++)"}
{"sequence": "YILLQSPQL (listed as Homo sapiens) [SEQ ID NO: 18]", "Peptide Exchange (MHC class I binding score, peptide exchange yield)": "“+++” (≥50 = +++)"}
{"sequence": "KLYEGIPVL (listed as Homo sapiens) [SEQ ID NO: 13]", "Peptide Exchange (MHC class I binding score, peptide exchange yield)": "“++” (≥20% = ++)"}
{"sequence": "GLVATLQSL (listed as Homo sapiens) [SEQ ID NO: 32]", "Peptide Exchange (MHC class I binding score, peptide exchange yield)": "“+++” (≥50 = +++)"}
{"sequence": "ALEEQLHQV (listed as Homo sapiens) [SEQ ID NO: 19]", "Peptide Exchange (MHC class I binding score, peptide exchange yield)": "“++” (≥20% = ++)"}
{"sequence": "SLADAVEKV (listed as Homo sapiens) [SEQ ID NO: 23]", "Peptide Exchange (MHC class I binding score, peptide exchange yield)": "“+++” (≥50 = +++)"}
{"sequence": "FIIPTVATA (listed as Homo sapiens) [SEQ ID NO: 7]", "Peptide Exchange (MHC class I binding score, peptide exchange yield)": "“++++” (≥75% = ++++)"}
{"sequence": "GLHSLPPEV (listed as Homo sapiens) [SEQ ID NO: 10]", "Peptide Exchange (MHC class I binding score, peptide exchange yield)": "“+++” (≥50 = +++)"}
{"sequence": "ILFDVVVFL (listed as Homo sapiens) [SEQ ID NO: 25]", "Peptide Exchange (MHC class I binding score, peptide exchange yield)": "“++” (≥20% = ++)"}
{"sequence": "ILTELPPGV (listed as Homo sapiens) [SEQ ID NO: 33]", "Peptide Exchange (MHC class I binding score, peptide exchange yield)": "“++” (≥20% = ++)"}
{"sequence": "ALNPVIYTV (listed as Homo sapiens) [SEQ ID NO: 5]", "Peptide Exchange (MHC class I binding score, peptide exchange yield)": "“++” (≥20% = ++)"}
{"sequence": "ALTALQNYL (listed as Homo sapiens) [SEQ ID NO: 6]", "Peptide Exchange (MHC class I binding score, peptide exchange yield)": "“+++” (≥50 = +++)"}
{"sequence": "SLFSVPFFL (listed as Homo sapiens) [SEQ ID NO: 28]", "Peptide Exchange (MHC class I binding score, peptide exchange yield)": "“++++” (≥75% = ++++)"}
{"sequence": "SLFPSLVVV (listed as Homo sapiens) [SEQ ID NO: 15]", "Peptide Exchange (MHC class I binding score, peptide exchange yield)": "“+++” (≥50 = +++)"}
{"sequence": "FLSSEAANV (listed as Homo sapiens) [SEQ ID NO: 30]", "Peptide Exchange (MHC class I binding score, peptide exchange yield)": "“++” (≥20% = ++)"}
{"sequence": "GLLGFQAEA (listed as Homo sapiens) [SEQ ID NO: 24]", "Peptide Exchange (MHC class I binding score, peptide exchange yield)": "“++++” (≥75% = ++++)"}
{"sequence": "FLDEEVKLI (listed as Homo sapiens) [SEQ ID NO: 43]", "Peptide Exchange (MHC class I binding score, peptide exchange yield)": "“+++” (≥50 = +++)"}
{"sequence": "FSFPVSVGV (listed as Homo sapiens) [SEQ ID NO: 20]", "Peptide Exchange (MHC class I binding score, peptide exchange yield)": "“+++” (≥50 = +++)"}
{"sequence": "SLLSEIQAL (listed as Homo sapiens) [SEQ ID NO: 35]", "Peptide Exchange (MHC class I binding score, peptide exchange yield)": "“++++” (≥75% = ++++)"}
{"sequence": "SLNDQGYLL (listed as Homo sapiens) [SEQ ID NO: 41]", "Peptide Exchange (MHC class I binding score, peptide exchange yield)": "“+++” (≥50 = +++)"}
{"tested_on": "CD8+ T cells", "test": "In vitro T-cell priming with aAPCs loaded with peptide/MHC complexes and anti-CD28 antibody, pMHC multimer readout", "type": "cell-based, human", "settings": "HLA class I peptides; CD8+ T cells of healthy HLA-A*02 donors", "text": "(§1) In order to obtain information regarding the immunogenicity of the TUMAPs of the present invention, the inventors performed investigations using an in vitro T-cell priming assay based on repeated stimulations of CD8+ T cells with artificial antigen presenting cells (aAPCs) loaded with peptide/MHC complexes and anti-CD28 antibody.\n(§2) In order to perform in vitro stimulations by artificial antigen presenting cells loaded with peptide-MHC complex (pMHC) and anti-CD28 antibody, the inventors first isolated CD8+ T cells from fresh HLA-A*02 leukapheresis products via positive selection using CD8 microbeads (Miltenyi Biotec, Bergisch-Gladbach, Germany) of healthy donors obtained from the University clinics Mannheim, Germany, after informed consent.\n(§3) PBMCs and isolated CD8+ lymphocytes were incubated in T-cell medium (TCM) until use consisting of RPMI-Glutamax (Invitrogen, Karlsruhe, Germany) supplemented with 10% heat inactivated human AB serum (PAN-Biotech, Aidenbach, Germany), 100 U/ml Penicillin/100 μg/ml Streptomycin (Cambrex, Cologne, Germany), 1 mM sodium pyruvate (CC Pro, Oberdorla, Germany), 20 μg/ml Gentamycin (Cambrex). 2.5 ng/ml IL-7 (PromoCell, Heidelberg, Germany) and 10 U/ml IL-2 (Novartis Pharma, Nürnberg, Germany) were also added to the TCM at this step.\n(§4) Generation of pMHC/anti-CD28 coated beads, T-cell stimulations and readout was performed in a highly defined in vitro system using four different pMHC molecules per stimulation condition and 8 different pMHC molecules per readout condition.\n(§5) The purified co-stimulatory mouse IgG2a anti human CD28 Ab 9.3 (Jung et al., 1987) was chemically biotinylated using Sulfo-N-hydroxysuccinimidobiotin as recommended by the manufacturer (Perbio, Bonn, Germany). Beads used were 5.6 μm diameter streptavidin coated polystyrene particles (Bangs Laboratories, Illinois, USA).\n(§6) 800.000 beads/200 μl were coated in 96-well plates in the presence of 4×12.5 ng different biotin-pMHC, washed and 600 ng biotin anti-CD28 were added subsequently in a volume of 200 μl. Stimulations were initiated in 96-well plates by co-incubating 1×10^6 CD8+ T cells with 2×10^5 washed coated beads in 200 μl TCM supplemented with 5 ng/ml IL-12 (PromoCell) for 3 days at 37° C. Half of the medium was then exchanged by fresh TCM supplemented with 80 U/ml IL-2 and incubating was continued for 4 days at 37° C.\n(§7) This stimulation cycle was performed for a total of three times. For the pMHC multimer readout using 8 different pMHC molecules per condition, a two-dimensional combinatorial coding approach was used as previously described (Andersen et al., 2012) with minor modifications encompassing coupling to 5 different fluorochromes. Finally, multimeric analyses were performed by staining the cells with Live/dead near IR dye (Invitrogen, Karlsruhe, Germany), CD8-FITC antibody clone SK1 (BD, Heidelberg, Germany) and fluorescent pMHC multimers. For analysis, a BD LSRII SORP cytometer equipped with appropriate lasers and filters was used. Peptide specific cells were calculated as percentage of total CD8+ cells. Evaluation of multimeric analysis was done using the FlowJo software (Tree Star, Oregon, USA). In vitro priming of specific multimer+ CD8+ lymphocytes was detected by comparing to negative control stimulations."}
{"sequence": "SLYKGLLSV (listed as Homo sapiens) [SEQ ID NO: 51]", "wells (in vitro immunogenicity, positive wells)": "++ (20%-49% = ++)"}
{"sequence": "TLSSIKVEV (listed as Homo sapiens) [SEQ ID NO: 50]", "wells (in vitro immunogenicity, positive wells)": "+ (<20% = +)"}
{"sequence": "ILFPDIIARA (listed as Homo sapiens) [SEQ ID NO: 66]", "wells (in vitro immunogenicity, positive wells)": "++ (20%-49% = ++)"}
{"tested_on": "CD8+ T cells", "test": "In vitro T-cell priming with aAPCs loaded with peptide/MHC complexes and anti-CD28 antibody, pMHC multimer readout", "type": "cell-based, human", "settings": "HLA-A*02 restricted peptides; positive wells among evaluable; healthy donors", "text": "as §1, §2, §3, §4, §5, §6, §7"}
{"sequence": "KMPEHISTV (listed as Homo sapiens) [SEQ ID NO: 1]", "Wells positive [%] (in vitro immunogenicity)": "“+” (<20% = +)"}
{"sequence": "SLLTEPALV (listed as Homo sapiens) [SEQ ID NO: 21]", "Wells positive [%] (in vitro immunogenicity)": "“++” (20%-49% = ++)"}
{"sequence": "ALAGSSPQV (listed as Homo sapiens) [SEQ ID NO: 2]", "Wells positive [%] (in vitro immunogenicity)": "“++” (20%-49% = ++)"}
{"sequence": "YIDGLESRV (listed as Homo sapiens) [SEQ ID NO: 22]", "Wells positive [%] (in vitro immunogenicity)": "“+” (<20% = +)"}
{"sequence": "SLADAVEKV (listed as Homo sapiens) [SEQ ID NO: 23]", "Wells positive [%] (in vitro immunogenicity)": "“+++” (50%-69% = +++)"}
{"sequence": "GLLGFQAEA (listed as Homo sapiens) [SEQ ID NO: 24]", "Wells positive [%] (in vitro immunogenicity)": "“++” (20%-49% = ++)"}
